Three molecules from paper PMC9482650, “Quantitative fragmentomics allow affinity mapping of interactomes” (Nature Communications, 2022) can be followed below.

Some targets named below: DLG1_1, Q12959; FRMPD3, Q5JV73; GRID2IP_1, A4D2P6; GRIP2_4, Q9C0E4; GRIP2_7, Q9C0E4; HTRA1, Q92743; IL16_1, Q14005; LNX1_1, Q8TBB1; LNX1_2, Q8TBB1; PARD3_3, Q8TEW0; PTPN3, P26045.
Holding throughout (experiment): holdup assay
What all share (parameters): key: below the threshold = too weak to quantify, mostly under pKd 3.1 to 4

A further test addresses T1, APBA2_2, Q99767.
T1 sequence (Q99767 654-744, limits assumed, looked up): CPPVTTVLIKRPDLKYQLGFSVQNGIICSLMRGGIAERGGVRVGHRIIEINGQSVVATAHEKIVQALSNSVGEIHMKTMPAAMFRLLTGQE

A further test concerns the target T2, APBA3_1, O96018.
T2 sequence (O96018 389-490, limits assumed, looked up): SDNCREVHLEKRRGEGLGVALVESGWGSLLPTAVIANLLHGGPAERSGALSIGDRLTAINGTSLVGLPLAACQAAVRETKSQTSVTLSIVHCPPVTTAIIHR

The target in a further test is T3, ARHGAP21, Q5T5U3.
T3 sequence (Q5T5U3 45-169, limits assumed, looked up): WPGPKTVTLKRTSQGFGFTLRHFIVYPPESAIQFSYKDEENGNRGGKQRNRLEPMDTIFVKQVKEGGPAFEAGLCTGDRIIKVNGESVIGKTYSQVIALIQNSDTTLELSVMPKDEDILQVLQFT

For the next test, the target named is T4, GRIP1_3, Q9Y3R0.
T4 sequence (Q9Y3R0 247-346, limits assumed, looked up): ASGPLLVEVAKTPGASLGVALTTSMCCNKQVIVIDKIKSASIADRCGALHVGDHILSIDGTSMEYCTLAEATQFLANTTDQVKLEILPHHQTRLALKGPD

Another test deals with T5, LIN7C, Q9NUP9.
T5 sequence (Q9NUP9 88-185, limits assumed, looked up): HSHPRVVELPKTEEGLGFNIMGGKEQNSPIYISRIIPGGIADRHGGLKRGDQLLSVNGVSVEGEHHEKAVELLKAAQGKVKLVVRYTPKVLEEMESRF

The target of a further test is T6, LNX2_2, Q8N448.
T6 sequence (Q8N448 334-432, limits assumed, looked up): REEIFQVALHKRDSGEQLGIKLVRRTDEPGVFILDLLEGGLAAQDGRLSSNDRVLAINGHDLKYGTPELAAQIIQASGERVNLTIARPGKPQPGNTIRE

The target of another test is T7, LNX2_3, Q8N448.
T7 sequence (Q8N448 463-564, limits assumed, looked up): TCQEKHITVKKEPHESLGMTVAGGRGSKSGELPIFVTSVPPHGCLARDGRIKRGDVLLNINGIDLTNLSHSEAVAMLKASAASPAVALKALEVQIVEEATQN

A further test concerns the target T8, MPDZ_12, O75970.
T8 sequence (O75970 1857-1958, limits assumed, looked up): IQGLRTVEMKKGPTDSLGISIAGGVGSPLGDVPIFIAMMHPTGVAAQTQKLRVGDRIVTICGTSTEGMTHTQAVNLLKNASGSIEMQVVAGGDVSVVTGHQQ

Another test deals with T9, PCLO, Q9Y6V0.
T9 sequence (Q9Y6V0 4491-4600, limits assumed, looked up): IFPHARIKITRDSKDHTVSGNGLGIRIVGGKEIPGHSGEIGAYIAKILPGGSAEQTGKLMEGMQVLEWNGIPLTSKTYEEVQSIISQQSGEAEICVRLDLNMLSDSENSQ

A further test has as its target T10, PTPN13_1, Q12923.
T10 sequence (Q12923 1088-1188, limits assumed, looked up): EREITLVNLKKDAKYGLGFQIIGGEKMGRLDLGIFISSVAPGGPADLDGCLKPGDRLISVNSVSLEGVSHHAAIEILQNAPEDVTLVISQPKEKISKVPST

A further test addresses T11, SNTG1, Q9NSN8.
T11 sequence (Q9NSN8 52-150, limits assumed, looked up): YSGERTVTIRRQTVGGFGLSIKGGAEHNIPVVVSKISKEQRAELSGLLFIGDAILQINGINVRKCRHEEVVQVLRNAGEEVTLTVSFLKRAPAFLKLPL

The target of the next test is T12, SYNJ2BP, P57105.
T12 sequence (P57105 8-110, limits assumed, looked up): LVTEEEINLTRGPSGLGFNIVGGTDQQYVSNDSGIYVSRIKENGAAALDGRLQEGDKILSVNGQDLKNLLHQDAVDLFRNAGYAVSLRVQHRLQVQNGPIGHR

The target in a further test is T13, TJP3_3, O95049.
T13 sequence (O95049 375-456, limits assumed, looked up): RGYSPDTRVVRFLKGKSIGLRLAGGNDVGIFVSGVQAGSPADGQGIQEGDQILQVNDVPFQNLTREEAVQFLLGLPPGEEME

Where [1] appears, read: plain residues with an end cap or a label only (N-terminal biotin on a linker: ttds).
Where [2] appears, read: plain residues with an end cap or a label only (N-terminal biotin on a linker: ahx).

Chain of GRID2IP_1, A4D2P6 (A4D2P6 1-87): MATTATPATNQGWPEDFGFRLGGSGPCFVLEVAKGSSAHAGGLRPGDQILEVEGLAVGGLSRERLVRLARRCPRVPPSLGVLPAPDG
Chain of GRIP2_4, Q9C0E4 (Q9C0E4 446-548): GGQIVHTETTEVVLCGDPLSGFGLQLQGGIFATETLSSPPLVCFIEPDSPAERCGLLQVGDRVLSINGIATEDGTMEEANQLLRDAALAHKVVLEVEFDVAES
Chain of FRMPD3, Q5JV73 (Q5JV73 12-100): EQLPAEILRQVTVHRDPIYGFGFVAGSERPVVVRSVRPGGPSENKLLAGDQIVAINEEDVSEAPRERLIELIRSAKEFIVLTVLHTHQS
Chain of HTRA1, Q92743 (Q92743 360-477): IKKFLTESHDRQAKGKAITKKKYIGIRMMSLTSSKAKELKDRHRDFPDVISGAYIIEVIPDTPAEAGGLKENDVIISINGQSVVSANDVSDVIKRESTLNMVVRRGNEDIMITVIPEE
Chain of GRIP2_7, Q9C0E4 (Q9C0E4 934-1023): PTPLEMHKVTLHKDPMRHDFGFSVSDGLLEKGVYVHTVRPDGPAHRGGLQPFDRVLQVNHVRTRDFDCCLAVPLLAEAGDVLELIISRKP
Chain of LNX1_1, Q8TBB1 (Q8TBB1 261-371): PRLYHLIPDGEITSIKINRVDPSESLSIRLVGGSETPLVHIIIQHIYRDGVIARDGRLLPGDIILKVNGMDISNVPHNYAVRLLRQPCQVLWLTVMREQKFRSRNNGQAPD
Chain of PARD3_3, Q8TEW0 (Q8TEW0 582-685): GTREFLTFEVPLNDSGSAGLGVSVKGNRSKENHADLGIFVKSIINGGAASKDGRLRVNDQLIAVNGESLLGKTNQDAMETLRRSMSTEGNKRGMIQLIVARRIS
Chain of LNX1_2, Q8TBB1 (Q8TBB1 371-470): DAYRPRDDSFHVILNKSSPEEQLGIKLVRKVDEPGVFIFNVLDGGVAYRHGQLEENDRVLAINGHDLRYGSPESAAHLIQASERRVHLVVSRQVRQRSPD
Chain of IL16_1, Q14005 (Q14005 210-306): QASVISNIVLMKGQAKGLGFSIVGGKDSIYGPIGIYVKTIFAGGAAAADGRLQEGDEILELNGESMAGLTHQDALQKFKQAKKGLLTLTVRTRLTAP
Chain of PTPN3, P26045 (P26045 505-587): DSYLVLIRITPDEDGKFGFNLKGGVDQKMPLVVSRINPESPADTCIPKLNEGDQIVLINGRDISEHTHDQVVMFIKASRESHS

Consider GARVSKETPL [MAPK12, P53778], for which the pKd – broadly, the negative decadic logarithm of the Kd, by convention in mol/L – in the test with APBA2_2, Q99767 (setting [1]) is “below the threshold”; in the test with APBA3_1, O96018 (setting [1]) it was “below the threshold”; with ARHGAP21, Q5T5U3 (setting [1]), “below the threshold”; with DLG1_1, Q12959 (setting [1]) it was 4.08; with FRMPD3, Q5JV73 (setting [1]), “below the threshold”; with GRID2IP_1, A4D2P6 (setting [1]) it was “below the threshold”. The negative-log Kd (pKd) result is recorded as “below the threshold” in the test with GRIP1_3, Q9Y3R0 (setting [1]); “below the threshold” in the test with GRIP2_4, Q9C0E4 (setting [1]); “below the threshold” with GRIP2_7, Q9C0E4 (setting [1]); “below the threshold” with HTRA1, Q92743 (setting [1]); “below the threshold” with IL16_1, Q14005 (setting [1]); “below the threshold” with LIN7C, Q9NUP9 (setting [1]). Further, the pKd entry in the test with LNX1_1, Q8TBB1 (setting [1]) was “below the threshold”; with LNX1_2, Q8TBB1 (setting [1]), “below the threshold”; in the test with LNX2_2, Q8N448 (setting [1]), “below the threshold”; with LNX2_3, Q8N448 (setting [1]) it was “below the threshold”; with MPDZ_12, O75970 (setting [1]) it was “below the threshold”; with PARD3_3, Q8TEW0 (setting [1]), “below the threshold”. Moreover, the pKd entry in the test with PCLO, Q9Y6V0 (setting [1]) is “below the threshold”; with PTPN13_1, Q12923 (setting [1]), “below the threshold”; with PTPN3, P26045 (setting [1]), 4.93; in the test with SNTG1, Q9NSN8 (setting [1]) it was “below the threshold”; in the test with SYNJ2BP, P57105 (setting [1]) it was 4.69; with TJP3_3, O95049 (setting [1]) it was “below the threshold”.
For the molecule KDECVIATEV [DLL1, O00548], the negative logarithm of the Kd (pKd) result in the test with APBA2_2, Q99767 (setting [2]) is “below the threshold”; with APBA3_1, O96018 (setting [2]) it was “below the threshold”; in the test with ARHGAP21, Q5T5U3 (setting [2]), “below the threshold”; in the test with DLG1_1, Q12959 (setting [2]), 3.72; with FRMPD3, Q5JV73 (setting [2]), “below the threshold”; with GRID2IP_1, A4D2P6 (setting [2]) it was “below the threshold”. The negative logarithm of the Kd (pKd) result was “below the threshold” with GRIP1_3, Q9Y3R0 (setting [2]); “below the threshold” in the test with GRIP2_4, Q9C0E4 (setting [2]); “below the threshold” with GRIP2_7, Q9C0E4 (setting [2]); 4.04 in the test with HTRA1, Q92743 (setting [2]); 3.47 with IL16_1, Q14005 (setting [2]); “below the threshold” with LIN7C, Q9NUP9 (setting [2]). The negative logarithm of the Kd (pKd) in the test with LNX1_1, Q8TBB1 (setting [2]) is 3.72; with LNX1_2, Q8TBB1 (setting [2]), “below the threshold”; in the test with LNX2_2, Q8N448 (setting [2]) it was 4.27; with LNX2_3, Q8N448 (setting [2]), “below the threshold”; in the test with MPDZ_12, O75970 (setting [2]), “below the threshold”; in the test with PARD3_3, Q8TEW0 (setting [2]), “below the threshold”. For the same molecule, the negative logarithm of the Kd (pKd) result with PCLO, Q9Y6V0 (setting [2]) was “below the threshold”; in the test with PTPN13_1, Q12923 (setting [2]) it was “below the threshold”; with PTPN3, P26045 (setting [2]), 4.2; with SNTG1, Q9NSN8 (setting [2]), 3.94; with SYNJ2BP, P57105 (setting [2]), 4.33; with TJP3_3, O95049 (setting [2]) it was “below the threshold”.
With KQVVPFSSSV [GDA, Q9Y2T3], the negative logarithm of the Kd (pKd) entry in the test with APBA2_2, Q99767 (setting [1]) was “below the threshold”; with APBA3_1, O96018 (setting [1]), “below the threshold”; with ARHGAP21, Q5T5U3 (setting [1]), “below the threshold”; with DLG1_1, Q12959 (setting [1]) it was 3.89; in the test with FRMPD3, Q5JV73 (setting [1]) it was “below the threshold”; with GRID2IP_1, A4D2P6 (setting [1]), “below the threshold”. The negative-log Kd (pKd) entry in the test with GRIP1_3, Q9Y3R0 (setting [1]) is “below the threshold”; with GRIP2_4, Q9C0E4 (setting [1]), “below the threshold”; in the test with GRIP2_7, Q9C0E4 (setting [1]) it was “below the threshold”; in the test with HTRA1, Q92743 (setting [1]), “below the threshold”; with IL16_1, Q14005 (setting [1]), 3.86; in the test with LIN7C, Q9NUP9 (setting [1]), “below the threshold”. Besides, the pKd is 3.84 with LNX1_1, Q8TBB1 (setting [1]); “below the threshold” with LNX1_2, Q8TBB1 (setting [1]); 3.65 in the test with LNX2_2, Q8N448 (setting [1]); “below the threshold” with LNX2_3, Q8N448 (setting [1]); 3.66 in the test with MPDZ_12, O75970 (setting [1]); “below the threshold” with PARD3_3, Q8TEW0 (setting [1]). Further, the pKd result was “below the threshold” with PCLO, Q9Y6V0 (setting [1]); “below the threshold” with PTPN13_1, Q12923 (setting [1]); 4.24 with PTPN3, P26045 (setting [1]); 3.71 with SNTG1, Q9NSN8 (setting [1]); 5 in the test with SYNJ2BP, P57105 (setting [1]); “below the threshold” with TJP3_3, O95049 (setting [1]).
